Data on two molecules can be found in paper PMC8580317.

Where “and” joins values, the source holds several entries; their conditions need not be identical. Equal entries are not always repeated.

One experiment addresses FZD5 CRD (UniProt Q13467). The note with it: cited from earlier work.
Experiment [1] concerns the target Nluc-FZD5-Q493K-Cy3 sensor (human) (UniProt Q13467).
Experiment [2] addresses Nluc-FZD6-K466K-Cy3 sensor (human) (UniProt O60353).
Experiment [3] deals with T1, Nluc-FZD6-Q171K-Cy3 sensor (human) (UniProt O60353).
T1 sequence (chain, trans-cyclooct-2-ene-L-lysine (TCO*K) at 171, labelled with Tet-Cy3): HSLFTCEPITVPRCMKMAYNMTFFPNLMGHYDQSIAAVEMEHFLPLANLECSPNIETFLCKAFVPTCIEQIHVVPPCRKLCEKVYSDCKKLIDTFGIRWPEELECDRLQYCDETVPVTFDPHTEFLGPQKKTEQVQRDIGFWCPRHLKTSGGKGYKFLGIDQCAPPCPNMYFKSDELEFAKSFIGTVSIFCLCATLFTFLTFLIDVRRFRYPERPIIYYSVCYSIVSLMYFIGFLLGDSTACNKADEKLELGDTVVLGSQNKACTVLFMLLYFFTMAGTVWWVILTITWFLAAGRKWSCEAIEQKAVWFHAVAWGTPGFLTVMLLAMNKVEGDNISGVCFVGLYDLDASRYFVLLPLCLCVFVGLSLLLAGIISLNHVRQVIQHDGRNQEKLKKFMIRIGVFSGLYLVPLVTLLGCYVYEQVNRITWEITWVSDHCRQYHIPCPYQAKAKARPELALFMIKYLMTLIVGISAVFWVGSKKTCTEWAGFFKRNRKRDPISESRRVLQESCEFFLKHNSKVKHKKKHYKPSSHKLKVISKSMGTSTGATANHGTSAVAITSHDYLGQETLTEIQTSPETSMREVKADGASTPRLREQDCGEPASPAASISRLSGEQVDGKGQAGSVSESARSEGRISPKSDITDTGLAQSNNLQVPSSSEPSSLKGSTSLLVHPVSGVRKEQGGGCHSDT

For experiment [4], the target named is Nluc-FZD6-K466K-Cy3 sensor (human) (UniProt O60353). The source holds these as a separate data set.
Experiment [5] has as its target T2, Nluc-FZD6-K466K-Cy3 dimer mutant (D365A/R368A/Y369A) (human) (UniProt O60353).
T2 sequence (chain, trans-cyclooct-2-ene-L-lysine (TCO*K) at 466, labelled with Tet-Cy3): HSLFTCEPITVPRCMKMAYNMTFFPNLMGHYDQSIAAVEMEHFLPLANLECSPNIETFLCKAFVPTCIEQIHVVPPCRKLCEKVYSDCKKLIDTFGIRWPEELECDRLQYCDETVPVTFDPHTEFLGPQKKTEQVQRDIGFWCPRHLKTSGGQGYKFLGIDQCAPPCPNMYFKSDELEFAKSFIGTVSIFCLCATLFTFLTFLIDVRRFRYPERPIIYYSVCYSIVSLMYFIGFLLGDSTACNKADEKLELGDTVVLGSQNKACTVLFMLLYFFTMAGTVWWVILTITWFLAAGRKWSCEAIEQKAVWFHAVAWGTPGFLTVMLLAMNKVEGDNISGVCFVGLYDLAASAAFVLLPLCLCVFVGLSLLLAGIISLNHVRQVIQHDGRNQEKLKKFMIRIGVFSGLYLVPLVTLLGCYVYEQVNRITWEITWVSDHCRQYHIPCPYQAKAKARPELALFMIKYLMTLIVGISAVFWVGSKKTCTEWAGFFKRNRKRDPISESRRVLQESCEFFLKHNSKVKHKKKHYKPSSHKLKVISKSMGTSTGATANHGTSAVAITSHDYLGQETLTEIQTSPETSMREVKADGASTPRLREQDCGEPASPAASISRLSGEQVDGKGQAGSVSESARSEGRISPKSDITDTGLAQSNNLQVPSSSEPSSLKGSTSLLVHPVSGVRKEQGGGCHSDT

Experiment [6] concerns the target Nluc-FZD6-K466K-Cy3 sensor (human) (UniProt O60353). This is another data set of the same source.

The term Kd denotes the equilibrium constant for the complex coming apart. Regarding WNT-3A (from UniProt P56704), the Kd with FZD5 CRD was 3.1 nM.

B1: recombinant WNT-5A (ligand)
chain: IIGAQPLCSQLAGLSQGQKKLCHLYQDHMQYIGEGAKTGIKECQYQFRHRRWNCSTVDNTSVFGRVMQIGSRETAFTYAVSAAGVVNAMSRACREGELSTCGCSRAARPKDLPRDWLWGGCGDNIDYGYRFAKEFVDARERERIHAKGSYESARILMNLHNNEAGRRTVYNLADVACKCHGVSGSCSLKTCWLQLADFRKVGDALKEKYDSAAAMRLNSRGKLVQVNSRFNSPTTQDLVYIDPSPDYCVRNESTGSLGTQGRLCNKTSEGMDGCELMCCGRGYDQFKTVQTERCHCKFHWCCYVKCKKCTEIVDQFVCK
As for B1, the maximal ∆BRET amplitude of the Cy3-labelled sensor upon WNT-5A (3 μg/ml), HEK293T cells in experiment [1] was -15.6%. In experiment [2], the EC50 of the WNT-5A-induced BRET signal of the sensor (concentration-response curve), HEK293T cells was 22.4 nM and 850 ng/ml. Besides, the fitted maximal ∆BRET amplitude of the Cy3-labelled sensor upon WNT-5A (3 μg/ml), HEK293T cells was -11.6% in experiment [3] and -26.4% in experiment [4]. The fitted plateau of the WNT-5A-induced BRET response of the sensor, HEK293T cells in experiment [5] was -10.2%. Besides, in experiment [6], the fitted plateau of the WNT-5A-induced BRET response of the sensor (experiment beside the dimer mutant), HEK293T cells is -19.7%.
